Test results as given in patent publication US9073997B2, “Growth factor antagonists for organ transplant alloimmunity and arteriosclerosis” (VEGENICS PTY LIMITED, priority 2007, dated 2015).

How the values were obtained:
VEGF-C 109 = molecular target: T1, VEGF-C 109 (Homo sapiens, UniProt P49767); assay: Receptor fragment/Fc fusion ligand precipitation binding assay, VEGF-C 109; conditions: tritiated VEGF-C 109 precipitated, analysis of PAGE gels
T1 construct: fragments with 109 residues each (called VEGF-A 109 and VEGF-C 109); His6 (C); made in house; host or cells: 293T cells (labelled supernatant)
T1 sequence (P49767 with tags, fused parts or gaps): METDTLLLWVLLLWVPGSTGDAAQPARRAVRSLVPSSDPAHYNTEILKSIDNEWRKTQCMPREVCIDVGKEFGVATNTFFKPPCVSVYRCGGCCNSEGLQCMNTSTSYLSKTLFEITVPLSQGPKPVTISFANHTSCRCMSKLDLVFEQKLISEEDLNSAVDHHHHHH
Excerpt: (§1) The binding assays utilized minimal VEGF-A (SEQ ID NOS: 106 and 107) and VEGF-C (SEQ ID NOS: 108 and 109) fragments with 109 residues each (called VEGF-A 109 and VEGF-C 109). These constructs are not naturally occurring, but are effective for binding assays. Other growth factor constructs, either natural or artificial, may also be used for performing these assays.
(§2) Either Tritiated VEGF-A 109 or VEGF-C 109 was used in a given binding experiment. Ligand in solution was precipitated by mixing […] of ligand solution with 100 μl binding mix at 4° C. overnight, with agitation. The ligand solution may be the supernatant of metabolically labeled 293T cells. The binding mixes used for the receptor binding analysis were as follows: for VEGFR-1 binding assays, the binding mix was phosphate buffered saline (PBS) containing 1.5% BSA, 0.06% Tween 20, 3 μg/ml heparin and 400 ng/ml VEGFR-1-Fc fusion protein (100 μl of this binding mix was added to 200 μl of ligand solution). For VEGFR-2 binding assays, the binding mix was 82% conditioned cell supernatant from 293T cells transiently expressing VEGFR-2-Fc fusion protein in mixture with 18% of a PBS solution that contained 5% BSA, 0.2% Tween 20, and 10 μg/ml heparin (250 μl of binding mix was added to 200 μl of ligand solution). For VEGFR-3 binding assays, the binding mix was 82% conditioned cell supernatant from 293T cells transiently expressing VEGFR-3-Fc fusion protein, 18% of PBS containing 5% BSA, 0.2% Tween 20, and 10 μg/ml heparin (250 μl of binding mix was added to 200 μl of ligand solution). To collect precipitated ligand, 50 μl of a 30% protein A sepharose (PAS, Pharmacia) slurry in PBS was added and incubated under agitation for at least 1.5 hr at 4° C. Standard buffer was added to each immunoprecipitation sample and boiled for 5 minutes at 95° C. during which the immunopreciptated proteins become dissociated from the protein A sepharose. After centrifugation, 10 μl of each sample was analyzed on 15% SDS-PAGE under reducing conditions. The gels were dried and exposed for either 12 hours on phosphorimager plates or 4 weeks on X-ray film.
(§3) Tables 3 and 4 identify constructs by name, a DNA and deduced amino acid sequence from the sequence listing, the portion of VEGFR-2 (SEQ ID NO: 4) or VEGFR-3 (SEQ ID NO: 6) amino acid sequence that was included in the constructs, whether the constructs expressed, and, if tested, whether constructs bound ligand. The table data is compiled from analysis of PAGE gels. The asterisk adjacent to the “B*” indicates a “spill-over” from the adjacent lane, as the origin of the bands seen in the “B” lane. A failure to express under the particular experimental conditions used in this instance should not be interpreted as a failure to bind. The experiments can be repeated using different receptor fragments, binding constructs, ligands, or combinations thereof.

VEGF-A 109 = molecular target: T2, VEGF-A 109 (Homo sapiens, UniProt P15692); assay: Receptor fragment/Fc fusion ligand precipitation binding assay, VEGF-A 109; conditions: VEGFR-2 Fc fusion constructs; tritiated VEGF-A 109 precipitated, analysis of PAGE gels
T2 construct: fragments with 109 residues each (called VEGF-A 109 and VEGF-C 109); His6 (C); made in house; host or cells: 293T cells (labelled supernatant)
T2 sequence (P15692 with tags, fused parts or gaps): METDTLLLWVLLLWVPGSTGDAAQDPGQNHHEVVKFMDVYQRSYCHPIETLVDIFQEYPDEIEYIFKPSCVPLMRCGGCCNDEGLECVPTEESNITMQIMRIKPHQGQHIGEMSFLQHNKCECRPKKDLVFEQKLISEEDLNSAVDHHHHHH
Excerpt: as §1, §2, §3

VEGF-A165 = molecular target: T3, VEGF-A165 (Homo sapiens, UniProt P15692); assay: Ligand binding analysis of chimeric VEGF receptor/hIgG1Fc fusions, VEGF-A165; conditions: for binding to VEGF-A: 35S-labeled VEGF-A165 precipitated with conditioned medium of 293T cells, SDS-PAGE
T3 construct: made in house; host or cells: 293T cells, transient transfection, 35S-labelled conditioned medium
T3 sequence (P15692 27-191 isoform P15692-4): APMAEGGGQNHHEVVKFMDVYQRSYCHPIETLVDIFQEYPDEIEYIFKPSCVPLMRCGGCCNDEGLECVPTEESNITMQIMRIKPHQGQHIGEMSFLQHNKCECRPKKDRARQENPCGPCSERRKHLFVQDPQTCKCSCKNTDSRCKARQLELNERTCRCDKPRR
Protocol: (§4) For expression analysis, the two new chimeric VEGF receptors and control constructs expressing R-1D1-3/hIgG1Fc, R-2D1-3/hIgG1Fc, R-3D1-3/hIgG1Fc, mature VEGF-C and VEGF-A165 were transiently transfected into 293T cells using JetPEI (QBioGene/MP Biomedicals, Irvine, Calif.). Metabolic labeling with ^35S-methionine and ^35S-cysteine was carried out at 48 hours post-transfection and labeling maintained for 24 hours. The serum-free conditioned medium was then immunoprecipitated using Protein A sepharose and either: a) specific antiserum against human mature VEGF-C; b) goat polyclonal antibody against human VEGF-A (R&D systems, Minneapolis, Minn.); or, c) serum-free medium of 293T cells taken 48 to 72 hours post-transient transfection with VEGF receptor/hIgG1Fc proteins (control proteins, R-1D1-3, R-2D1-3, R-3D1-3; chimeric proteins, R-3D1-R2D2+3 and R-3D1-R2D2-R1D3).
(§5) The immunoprecipitated fractions were analyzed on 17% SDS-PAGE and the dried gels were exposed for 12 hours on phosphoimager plates or 36 hours on X-ray films.
(§6) Ligand binding analysis was performed as described for the VEGF-C/VEGF-A hybrid growth factors in Example 1. Briefly, the unlabeled conditioned medium of transiently transfected 293T cells expressing the chimeric VEGFR/IgG1Fc fusion proteins was used to precipitate the ^35S metabolically labeled mature VEGF-C, full-length VEGF-C, and VEGF-A165.

[1] = tested on: mature VEGF-C, full-length VEGF-C; assay: Ligand binding analysis of chimeric VEGF receptor/hIgG1Fc fusions, VEGF-C; design: species or system human; conditions: 35S-labeled mature and full-length VEGF-C precipitated with conditioned medium of 293T cells, SDS-PAGE
Protocol: as §4, §5, §6

Chain of mature VEGF-C, full-length VEGF-C (P49767 112-227 limits assumed): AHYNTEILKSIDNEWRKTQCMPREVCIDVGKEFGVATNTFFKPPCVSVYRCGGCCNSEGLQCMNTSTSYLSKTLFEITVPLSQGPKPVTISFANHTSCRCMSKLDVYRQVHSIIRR

| Substance | Binds VEGF-C (VEGF-C 109; VEGFR-3 Fc fusion constructs) | Binds VEGF-A (VEGF-A 109) | Binds VEGF-C (VEGF-C 109; VEGFR-2 Fc fusion constructs) | further results |
| --- | --- | --- | --- | --- |
| R-3 J: Fc fusion of VEGFR-3 residues 1-39, 132-247; SEQ ID NOS: 49 and 50 | No | – | – | – |
| R-2 C: Fc fusion of VEGFR-2 residues 24-226 with CD33 signal peptide; SEQ ID NOS: 11 and 12 | – | No | No | – |
| R-2 D: Fc fusion of VEGFR-2 residues 24-232 with CD33 signal peptide; SEQ ID NOS: 13 and 14 | – | No | No | – |
| R-3D1-R2D2-R1D3/Ig: chimeric hIgG1Fc fusion: first Ig-like domain of VEGFR-3, second of VEGFR-2, third of VEGFR-1; SEQ ID NO: 128 | – | – | – | binding to VEGF-A (VEGF-A165): strongly bound; binding to VEGF-C [1]: strongly bound |
| R-2 E: Fc fusion of VEGFR-2 residues 24-241 with CD33 signal peptide; SEQ ID NOS: 15 and 16 | – | No | No | – |
| R-2 G: Fc fusion of VEGFR-2 residues 118-326 with CD33 signal peptide; SEQ ID NOS: 19 and 20 | – | Yes | Yes | – |
| R-2 H: Fc fusion of VEGFR-2 residues 118-220 with CD33 signal peptide; SEQ ID NOS: 21 and 22 | – | No | Yes | Binds VEGF-C (VEGF-C 109; VEGFR-2 Fc fusion constructs, listed as R-2H): sufficient for VEGF-C binding |
| R-2 F: Fc fusion of VEGFR-2 residues 24-122 with CD33 signal peptide; SEQ ID NOS: 17 and 18 | – | No | No | – |
| R-3 B: Fc fusion of VEGFR-3 residues 138-226 with CD33 signal peptide; SEQ ID NOS: 33 and 34 | Yes | – | – | – |
| R-3 I: Fc fusion of VEGFR-3 residues 1-39, 132-329; SEQ ID NOS: 47 and 48 | No | – | – | – |
| R-3D1-R2D2+3/Ig: chimeric hIgG1Fc fusion: first Ig-like domain of VEGFR-3 and second and third Ig-like domains of VEGFR-2; SEQ ID NO: 125 | – | – | – | binding to VEGF-A (VEGF-A165): not VEGF-A; binding to VEGF-A, second experiment (VEGF-A165; second experiment, 35S-labeled VEGF-A165, SDS-PAGE): only weak binding; binding to VEGF-C [1]: exhibited binding |
| R-2 A: Fc fusion of VEGFR-2 (SEQ ID NO: 4) residues 24-326 with CD33 signal peptide; SEQ ID NOS: 7 and 8 | – | Yes | Yes | – |

The next lines start with results.

| Binds VEGF-C (VEGF-C 109; VEGFR-3 Fc fusion constructs) | Binds VEGF-A (VEGF-A 109) | Binds VEGF-C (VEGF-C 109; VEGFR-2 Fc fusion constructs) | Substance | further results |
| --- | --- | --- | --- | --- |
| – | No | No | R-2 B: Fc fusion of VEGFR-2 residues 24-220 with CD33 signal peptide; SEQ ID NOS: 9 and 10 | – |
| – | No | No | R-2 K: Fc fusion of VEGFR-2 residues 118-241 with CD33 signal peptide; SEQ ID NOS: 27 and 28 | – |
| – | No | Very | R-2 J: Fc fusion of VEGFR-2 residues 118-232 with CD33 signal peptide; SEQ ID NOS: 25 and 26 | – |
| Yes | – | – | R-3 G: Fc fusion of VEGFR-3 residues 1-329 (D1-3); SEQ ID NOS: 43 and 44 | – |
| No | – | – | R-3 K: Fc fusion of VEGFR-3 residues 1-39, 132-229; SEQ ID NOS: 51 and 52 | – |
| Yes | – | – | R-3 D: Fc fusion of VEGFR-3 residues 1-226; SEQ ID NOS: 37 and 38 | – |
| Yes | – | – | R-3 C: Fc fusion of VEGFR-3 residues 1-229; SEQ ID NOS: 35 and 36 | – |
| No | – | – | R-3 H: Fc fusion of VEGFR-3 residues 1-134; SEQ ID NOS: 45 and 46 | – |
| – | No | No | R-2 L: Fc fusion of VEGFR-2 residues 220-326 with CD33 signal peptide; SEQ ID NOS: 29 and 30 | – |
| – | No | Weak | R-2 I: Fc fusion of VEGFR-2 residues 118-226 with CD33 signal peptide; SEQ ID NOS: 23 and 24 | – |
